Reference: US20110300138A1 (published 2011)

Tests used:
Experiment in all cases: cell-based or functional assay
[1] = molecular target: TSHR with Gln235 mutated to Ala expressed in CHO cells (human) (UniProt P16473)
[2] = molecular target: wild type TSHR (human TSH receptor) expressed in CHO cells (human) (UniProt P16473)
[3] = molecular target: TSHR with Asp151 mutated to Ala, expressed in CHO cells (human) (UniProt P16473)

Cyclic AMP produced, TSH 0.03 ng/mL, Experiment 1 [1]: 2.89 pmol/mL
Cyclic AMP produced, TSH 0.03 ng/mL, Experiment 2 [1]: 4.55 pmol/mL
Cyclic AMP produced, TSH 0.1 ng/mL, Experiment 1 [1]: 5.97 pmol/mL
Cyclic AMP produced, TSH 0.1 ng/mL, Experiment 2 [1]: 7.77 pmol/mL
Cyclic AMP produced, TSH 0.3 ng/mL, Experiment 1 [1]: 17.6 pmol/mL
Cyclic AMP produced, TSH 0.3 ng/mL, Experiment 2 [1]: 17.1 pmol/mL
Cyclic AMP produced, TSH 1 ng/mL, Experiment 1 [1]: 44.2 pmol/mL
Cyclic AMP produced, TSH 1 ng/mL, Experiment 2 [1]: 31.7 pmol/mL
Cyclic AMP produced; TSH 3 ng/mL; Experiment 1 [1]: 46.6 pmol/mL
Cyclic AMP produced; TSH 3 ng/mL; Experiment 2 [1]: 37.1 pmol/mL
Experiment 1: % inhibition of TSH stimulation; TSH (2), run at the end of assay [1]: 13%
Experiment 1: Mutated/wild type (%) of cyclic AMP produced; TSH 3 ng/mL [1]: 70%
Experiment 1: Mutated/wild type (%) of cyclic AMP produced; TSH (2) 3 ng/mL, run at the end of assay [1]: 61%
Experiment 2: % inhibition of TSH stimulation; TSH (2), run at the end of assay [1]: 3%
Experiment 2: Mutated/wild type (%) of cyclic AMP produced; TSH 3 ng/mL [1]: 100%
Experiment 2: Mutated/wild type (%) of cyclic AMP produced; TSH (2) 3 ng/mL, run at the end of assay [1]: 71%
Mutated/Wild type (%) of cyclic AMP produced, TSH 0.01 ng/mL, Experiment 1 [1]: 161%
Mutated/Wild type (%) of cyclic AMP produced, TSH 0.01 ng/mL, Experiment 2 [1]: 177%
Mutated/Wild type (%) of cyclic AMP produced, TSH 0.03 ng/mL, Experiment 1 [1]: 125%
Mutated/Wild type (%) of cyclic AMP produced, TSH 0.03 ng/mL, Experiment 2 [1]: 165%
Mutated/Wild type (%) of cyclic AMP produced, TSH 0.1 ng/mL, Experiment 1 [1]: 91%
Mutated/Wild type (%) of cyclic AMP produced, TSH 0.1 ng/mL, Experiment 2 [1]: 107%
Mutated/Wild type (%) of cyclic AMP produced, TSH 0.3 ng/mL, Experiment 1 [1]: 67%
Mutated/Wild type (%) of cyclic AMP produced, TSH 0.3 ng/mL, Experiment 2 [1]: 68%
Mutated/Wild type (%) of cyclic AMP produced, TSH 1 ng/mL, Experiment 1 [1]: 65%
Mutated/Wild type (%) of cyclic AMP produced, TSH 1 ng/mL, Experiment 2 [1]: 62%
Mutated/wild type (%) of cyclic AMP produced; TSH 3 ng/mL; Experiment 1 [1]: 56%
Mutated/wild type (%) of cyclic AMP produced; TSH 3 ng/mL; Experiment 2 [1]: 53%
% inhibition of TSH stimulation; TSH (2), run at the end of assay [2]: 0%
% inhibition of TSH stimulation; TSH (2), run at the end of assay; Experiment 1 [2]: 8%
% inhibition of TSH stimulation; TSH (2), run at the end of assay; Experiment 2 [2]: 0%
Cyclic AMP produced (pmol/mL), TSH 0.01 ng/mL [2]: 2.45 pmol/mL
Cyclic AMP produced (pmol/mL), TSH 0.01 ng/mL, Experiment 1 [2]: 1.86 pmol/mL
Cyclic AMP produced (pmol/mL), TSH 0.01 ng/mL, Experiment 2 [2]: 2.49 pmol/mL
Cyclic AMP produced (pmol/mL), TSH 0.03 ng/mL [2]: 4.78 pmol/mL
Cyclic AMP produced (pmol/mL), TSH 0.03 ng/mL, Experiment 1 [2]: 3.32 pmol/mL
Cyclic AMP produced (pmol/mL), TSH 0.03 ng/mL, Experiment 2 [2]: 5.12 pmol/mL
Cyclic AMP produced (pmol/mL), TSH 0.1 ng/mL [2]: 16.2 pmol/mL
Cyclic AMP produced (pmol/mL), TSH 0.1 ng/mL, Experiment 1 [2]: 14.6 pmol/mL
Cyclic AMP produced (pmol/mL), TSH 0.1 ng/mL, Experiment 2 [2]: 13.7 pmol/mL
Cyclic AMP produced (pmol/mL), TSH 0.3 ng/mL [2]: 44.3 pmol/mL
Cyclic AMP produced (pmol/mL), TSH 0.3 ng/mL, Experiment 1 [2]: 48.5 pmol/mL
Cyclic AMP produced (pmol/mL), TSH 0.3 ng/mL, Experiment 2 [2]: 39.9 pmol/mL
Cyclic AMP produced (pmol/mL), TSH 1 ng/mL [2]: 77.2 pmol/mL
Cyclic AMP produced (pmol/mL), TSH 1 ng/mL, Experiment 1 [2]: 91.2 pmol/mL
Cyclic AMP produced (pmol/mL), TSH 1 ng/mL, Experiment 2 [2]: 74.3 pmol/mL
Cyclic AMP produced (pmol/mL), TSH 3 ng/mL [2]: 95.5 pmol/mL
Cyclic AMP produced (pmol/mL), TSH 3 ng/mL, Experiment 1 [2]: 119 pmol/mL
Cyclic AMP produced (pmol/mL), TSH 3 ng/mL, Experiment 2 [2]: 88.3 pmol/mL
Cyclic AMP produced (pmol/mL), wild type TSHR, TSH 0.01 ng/mL [2]: 2.48 pmol/mL
Cyclic AMP produced (pmol/mL), wild type TSHR, TSH 0.01 ng/mL, Experiment 1 [2]: 2.6 pmol/mL
Cyclic AMP produced (pmol/mL), wild type TSHR, TSH 0.01 ng/mL, Experiment 2 [2]: 3.89 pmol/mL
Cyclic AMP produced (pmol/mL), wild type TSHR, TSH 0.03 ng/mL [2]: 4.62 pmol/mL
Cyclic AMP produced (pmol/mL), wild type TSHR, TSH 0.03 ng/mL, Experiment 1 [2]: 4.27 pmol/mL
Cyclic AMP produced (pmol/mL), wild type TSHR, TSH 0.03 ng/mL, Experiment 2 [2]: 5.52 pmol/mL
Cyclic AMP produced (pmol/mL), wild type TSHR, TSH 0.1 ng/mL [2]: 17.6 pmol/mL
Cyclic AMP produced (pmol/mL), wild type TSHR, TSH 0.1 ng/mL, Experiment 1 [2]: 10.9 pmol/mL
Cyclic AMP produced (pmol/mL), wild type TSHR, TSH 0.1 ng/mL, Experiment 2 [2]: 13.3 pmol/mL
Cyclic AMP produced (pmol/mL), wild type TSHR, TSH 0.3 ng/mL [2]: 40.4 pmol/mL
Cyclic AMP produced (pmol/mL), wild type TSHR, TSH 0.3 ng/mL, Experiment 1 [2]: 32.3 pmol/mL
Cyclic AMP produced (pmol/mL), wild type TSHR, TSH 0.3 ng/mL, Experiment 2 [2]: 35.4 pmol/mL
Cyclic AMP produced (pmol/mL), wild type TSHR, TSH 1 ng/mL [2]: 92.5 pmol/mL
Cyclic AMP produced (pmol/mL), wild type TSHR, TSH 1 ng/mL, Experiment 1 [2]: 85 pmol/mL
Cyclic AMP produced (pmol/mL), wild type TSHR, TSH 1 ng/mL, Experiment 2 [2]: 82.1 pmol/mL
Cyclic AMP produced (pmol/mL), wild type TSHR, TSH 3 ng/mL [2]: 104 pmol/mL
Cyclic AMP produced (pmol/mL), wild type TSHR, TSH 3 ng/mL, Experiment 1 [2]: 124 pmol/mL
Cyclic AMP produced (pmol/mL), wild type TSHR, TSH 3 ng/mL, Experiment 2 [2]: 91.7 pmol/mL
Cyclic AMP produced, wild type TSHR, TSH 0.01 ng/mL [2]: 1.41 pmol/mL
Cyclic AMP produced, wild type TSHR, TSH 0.03 ng/mL [2]: 1.99 pmol/mL
Cyclic AMP produced, wild type TSHR, TSH 0.1 ng/mL [2]: 5.54 pmol/mL
Cyclic AMP produced, wild type TSHR, TSH 0.3 ng/mL [2]: 16.3 pmol/mL
Cyclic AMP produced, wild type TSHR, TSH 1 ng/mL [2]: 44.2 pmol/mL
Cyclic AMP produced, wild type TSHR, TSH 3 ng/mL [2]: 53.9 pmol/mL
% inhibition of TSH stimulation, mutated TSHR; TSH (2) (run at the end of assay) [3]: 9%
Mutated/Wild type (%) of cyclic AMP produced, TSH 0.01 ng/mL [3]: 209%
Mutated/Wild type (%) of cyclic AMP produced, TSH 0.03 ng/mL [3]: 149%
Mutated/Wild type (%) of cyclic AMP produced, TSH 0.1 ng/mL [3]: 99%
Mutated/Wild type (%) of cyclic AMP produced, TSH 0.3 ng/mL [3]: 80%
Mutated/Wild type (%) of cyclic AMP produced, TSH 1 ng/mL [3]: 66%
Mutated/wild type (%) of cyclic AMP produced; TSH 3 ng/mL [3]: 68%
Mutated/wild type (%) of cyclic AMP produced; test sample: TSH (3 ng/mL) [3]: 62%
Mutated/wild type (%) of cyclic AMP produced; test sample: TSH (2) (3 ng/mL, run at the end of assay) [3]: 44%
Substance: TSH (ligand)
